Results from patent US20100260765A1 (AstraZeneca / MedImmune, published 2010).

B1: 33E1 (antibody, V domains shown)
VH: QVQLQESGPGLVKPSQTLSLTCTVSGGSISSGDHYWSWIRQHPGKGLEWIGHIYYSGSTDYNPSLKSRVTISVDTSKNHFSLKLNSVTAADTAVYYCARTNSSSWSDWYFDLWGRGTLVTVSS
VL: DIVMTQSPDSLAVSLGERATINCKSSQSILYSSNNKNYLAWYQRKPGQPPILLIHWASTRESGVPDRFSGSGSRTDFTLTISSLQAEDVAVYYCQQYFITPWTFGQGTKVEIK
B2: 24C9 (antibody, V domains shown)
VH: EVQLVESGGGLVKPGGSLRLSCAASGFTFSTYSMNWVRQAPGKGLEWVSFISGRSSYIYYADSVKGRFTISRDNAKNSLYLQMNSLRAEDTAVYYCSKDDWFEELWGQGTLVTVSS
VL: DIQMTQSPSSLSASVGDRVTITCRASQGIRNDLGWYQQKPGKAPKRLIYATFSLQSGVPSRFSGSGSGTEFTLTISSLQPEDFATYYCLQHNRYPWTFGQGTKVEIK
B3: 31E11 (antibody, V domains shown)
VH: QVQLVESGGGLVKPGGSLRLSCAASGFTFSDYYMSWIRQAPGKGLEWVSYISISGSTIYYADSVKGRFTISRDNAKNSLYLQMNSLRAEDTAVYYCARDDFWSGYYFNWFDPWGQGTLVTVSS
VL: DIQMTQSPSSLSASVGDRVTITCRANQTISTFLNWYQQNPGKAPKLLIYAASSLQSGVPSRFSGSGSGTDFTLTISSLQPEDFATYYCQQTYIIPLTFGGGTKVEIK

Legend:
Assay in all cases: cell-based or functional assay
[1] = target: T1, KDR (human, UniProt P35968 20-1356)
[2] = target: T1, KDR; remark: listed apart in the source
[3] = target: T1, KDR; remark: listed apart in the source
[4] = target: T1, KDR; remark: listed apart in the source
[5] = target: T1, KDR; remark: listed apart in the source

T1 sequence (P35968 20-1356): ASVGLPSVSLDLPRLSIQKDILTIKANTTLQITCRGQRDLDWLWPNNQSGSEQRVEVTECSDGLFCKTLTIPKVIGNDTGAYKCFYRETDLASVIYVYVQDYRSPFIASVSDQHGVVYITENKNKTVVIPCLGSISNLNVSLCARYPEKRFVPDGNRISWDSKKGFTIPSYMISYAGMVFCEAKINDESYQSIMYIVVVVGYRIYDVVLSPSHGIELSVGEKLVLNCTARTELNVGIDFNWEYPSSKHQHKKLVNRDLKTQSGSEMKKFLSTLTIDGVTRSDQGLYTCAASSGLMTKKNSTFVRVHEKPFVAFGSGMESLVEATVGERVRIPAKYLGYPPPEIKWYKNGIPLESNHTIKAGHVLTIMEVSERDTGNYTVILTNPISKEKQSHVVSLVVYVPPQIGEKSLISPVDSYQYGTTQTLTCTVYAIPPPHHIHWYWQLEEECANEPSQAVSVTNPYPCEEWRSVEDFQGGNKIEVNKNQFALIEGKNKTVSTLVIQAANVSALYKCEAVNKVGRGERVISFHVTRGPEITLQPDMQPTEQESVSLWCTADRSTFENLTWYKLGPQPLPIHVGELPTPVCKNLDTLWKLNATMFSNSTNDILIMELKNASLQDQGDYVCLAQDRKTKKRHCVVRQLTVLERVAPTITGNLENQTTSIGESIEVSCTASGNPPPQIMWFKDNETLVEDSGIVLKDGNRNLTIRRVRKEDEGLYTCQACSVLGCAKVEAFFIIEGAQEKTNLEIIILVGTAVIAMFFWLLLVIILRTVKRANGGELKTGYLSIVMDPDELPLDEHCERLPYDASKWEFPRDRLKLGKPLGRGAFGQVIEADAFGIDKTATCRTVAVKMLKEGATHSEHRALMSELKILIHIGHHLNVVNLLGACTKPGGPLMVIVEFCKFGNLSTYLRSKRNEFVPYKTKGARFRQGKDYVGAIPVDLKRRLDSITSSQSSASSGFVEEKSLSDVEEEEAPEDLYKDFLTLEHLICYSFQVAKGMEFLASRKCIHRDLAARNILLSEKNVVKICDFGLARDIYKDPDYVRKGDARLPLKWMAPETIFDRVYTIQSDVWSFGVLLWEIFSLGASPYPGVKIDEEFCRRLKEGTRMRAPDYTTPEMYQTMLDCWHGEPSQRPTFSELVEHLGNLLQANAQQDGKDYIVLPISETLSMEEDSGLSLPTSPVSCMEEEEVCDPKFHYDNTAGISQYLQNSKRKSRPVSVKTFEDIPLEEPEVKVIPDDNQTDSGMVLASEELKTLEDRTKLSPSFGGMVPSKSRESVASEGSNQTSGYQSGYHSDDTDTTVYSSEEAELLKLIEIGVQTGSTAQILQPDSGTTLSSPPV

Row | Binder | % of Max VEGF KDR pTyr Activity (at 133 nM antibody concentration), Average [1] [%] | % of Max VEGF KDR pTyr Activity (at 133 nM antibody concentration), N = 1 [1] [%] | % of Max VEGF KDR pTyr Activity (at 133 nM antibody concentration), N = 2 [1] [%] | Activity at 133 nM (% Inhibition), 1-hour Pre-incubation at 4° C., Average [2] [%] | Activity at 133 nM (% Inhibition), 1-hour Pre-incubation at 4° C., N = 1 [2] [%] | Activity at 133 nM (% Inhibition), 1-hour Pre-incubation at 4° C., N = 2 [2] [%] | Activity at 133 nM (% Inhibition), 24-hour Pre-incubation at 37° C., Average [3] [%] | Activity at 133 nM (% Inhibition), 24-hour Pre-incubation at 37° C., N = 1 [3] [%] | Activity at 133 nM (% Inhibition), 24-hour Pre-incubation at 37° C., N = 2 [3] [%] | % Inhibition of VEGF165-mediated 6-keto Prostaglandin F1α release at 133 nM Antibody Concentration, Average [4] [%] | % Inhibition of VEGF165-mediated 6-keto Prostaglandin F1α release at 133 nM Antibody Concentration, N = 1 [4] [%] | % Inhibition of VEGF165-mediated 6-keto Prostaglandin F1α release at 133 nM Antibody Concentration, N = 2 [4] [%] | Activity at 133 nM Antibody Concentration (% Survival Inhibition), Average [5] [%] | Activity at 133 nM Antibody Concentration (% Survival Inhibition), N = 1 [5] [%] | Activity at 133 nM Antibody Concentration (% Survival Inhibition), N = 2 [5] [%]
1 | B1 | 8 | 5 | 10 | 77 | 78 | 75 | 77 | 85 | 68 | 113 | 128 | 98 | 92 | 86 | 97
2 | B2 | 13 | 13 |  | 81 | 81 |  | 46 | 46 |  | 91 | 91 |  | 57 | 57 | 
3 | B3 | 5 | 4 | 6 | 81 | 82 | 80 | 69 | 90 | 48 | 114 | 130 | 98 | 89 | 83 | 95
